Test: soluble on expression in E. coli; label from the status in PepcDB or PDB records

Soluble on expression in E. coli, not soluble:
MSLKAFLHHLQNEAKLIISLTYCVDGEFALNEIARATLQQYGIVQLSSATNSDSETEAATSKAVKTAYDKAVEAKTTADGKVGLNGNESINGEKTFENRIVAKRNIRISDSPHYASRGDYLNIGANNGDCWFEYKLSNQEIGTLRMHANGDLTYKRQKIYLKMDCWQAIHKRKLKVFTAKRKKREGHHHHHH, MSLKIGPILRSNVNRSITGDFDFREADLSLIRNFPNARVSLRDITLTTAAPFEGDTLFKAREAYLVMGIGELFKGAGEPIGIRELFVSGADLRLRLDAEERPNYLVAAEDPAATGATAASDGFTFDLQGYQIADSKISYMDQSSGISFLLEDIQHTGSGDLSLAESRLETRTDARISLGMDSVQYLDRNSLQLDARIGIDLETDTYTFLENEGLINQMPLVFEGSVQLVEEGQEIDLDFRTPSSDFKNFLALIPEAYSKSLEEVRTSGQFTLEGSITGRSDDTRIPNLDIRMEAVDAAFRYPDLPKGIDDINFSARLLNTTGIAGDTYLEIPAAGFRIDQDVFNMSGNIRSLTGNPEVDAALKGTINLASLDQAYPVELAPGLSGVLRADVQTAFDMASVENKQYGNTRTSGSLQLSNLNFRADNFAEPVKIREARLRFDPVEARLESLSGSLGQSDFTLSGTVRDYLGYLLADGILKGQFSLTSNQLLVSDFMSPEDPGQAEKETGADARASGQAPDGGPAFQIPAAIDVSIRGQAASVVYDGLPLRNVSGNLQIRDQELQLRDVRSDALDGKLALNGTVATGEGLPRFNMDLGIDGFRIRETLESIELFETLAPIASIVEGKLNSRVQLSGLLNSDFSPDLMSLAGNVVAEVLASDITGTRAKVLEALDARMDFFNMEDLDLKGLKTALNFENGLVTVKPFSFTYRDMEVSVAGSHSFDQQLNYTATLQVPAKYLGSDVNRLVTELQEPGLKEGHHHHHH, MSLKILLKQAMVYPITSQKFQGDVLVIGEKIAEVKPFIQPTQDMTVIDARALHLLPGFIDVHTHLGLYDEGTGWAGNDANETSEVSTPHIRSLDGIHPLDIAFQDAVQNGITTVHVMPGSQNIIGGTTCVIKTAGTCIDHMIIQEPAGLKIAFGENPKKVHSNGTKESITRMGIMGLLRESFYEAQHYGHEADFRMLPILKALRREIPVRIHAHRADDISSALRFATEFNLDLRIEHCTEGHFIVEELSKHNLKVSVGPTLTRRSKIELKNKTWDTYHILSKSGVEVSITTDHPYTPIQYLNLCAAVAVREGLDEKTALEGITIFPARNLRLEDRIGSIEVGKDADLVLWTHHPFHYLAKPVLTMIDGKIIYKKNKKNEGHHHHHH, MSLKITADEALTLSKSNGSDIFLLCSFANKLREKFNGNHVDLCSVINAKSGNCSEDCAFCAQSAHHKANVSCYPLLNEDKILEMAKQREAYGARHCDIATSGLGYTGDEKDFQTILKAFKKMKENTNLKLCACLGTLTEKAMNSLAAVGVERYNHNLETAKSFYKNIVSTHGYDERIKTINYAKNAKMEVCSGMIVGLGETMEQRIEHALLLRDLNVDAVPVNILNPVKGTKLENAKPLSPMEIIKTFAIIRFILPDKIIRYAGGREKNLRSLQPLGFLSGLNGMLIGNYLTTNGQSVNDDFNMLKDLELEYEGHHHHHH, MSLKKEVVVIGGGIVGLSCAYSMHKLGHKVCVIEKNDGANGTSFGNAGLISAFKKAPLSCPGVVLDTLKLMLKNQAPLKFHFGLNLKLYQWILKFVKSANAKSTHRTMALFERYGWLSIDMYHQMLKDGMDFWYKEDGLLMIYTLEESFEKKLKTCDNSGAYKILSAKETKEYMPVVNDNICGSVLLTENAHVDPGEVMHSLQEYLQNVGVEFLYNEEVIDFEFKNNLIEGVITHKEKIQAETIILATGANPTLIKKTKNDFLMMGAKGYSITFKMPEELKPKTSSLFADIFMAMTPRRDTVRITSKLELNTNNALIDKEQIANMKKNLAAFTQPFEMKDAIEWCGFRPLTPNDIPYLGYDKRYKNLIHATGLGWLGITFGPAIGKIIANLSQDGANEKNADIMLFSAFFRDEGHHHHHH

Soluble on expression in E. coli, soluble:
MSLKADPRGTGSRTPGTATGGKTVPTVPPAPTADRRTTVDVTALLERGRTLATPVLRAAVDRLAPPMDTVAAYHFGWIDAQGNPADGDGGKAVRPALAVLSAEVTGAAPEVGVPGAVAVELVHNFSLLHDDLMDGDEQRRHRDTVWKVHGPAQAILVGDALFALANEVLLELGTVEAGRATRRLTKASRSLIDGQAQDISYEHRDRVSVEECLEMEGNKTGALLACASSIGAVLGGADERTADTLEKYGYHLGLAFQAVDDLLGIWGDPDATGKQTWSDLRQRKKSLPVVAALAAGGAASERLGEILTADAKASDFANFSEEEFAARAALIEEAGGREWTADEARRQHTIAIEALDAVDMPDRVRDRFTALADFVVVRKREGHHHHHH, MSLKANNLLSQFGDHRQRVQSAITAVCEGRGILLVDDENRENEGDLIFSAQSMTEADMAIMIRHCSGIVCLCITEEKARQLNLPLMVEQNTSKYGTAFTISIEAAEGVTTGVSAADRIQTIRTAIAPNATPESLHHPGHIFPLIARSGGIKERSGHTEGSIDLMKLAGLAPCAVLCELTNDDGTMARLPEIIKFGLEHKYPVVTINDLKEYQTAPDFLPKLVGSFSCPAAENPTTAIMEAAFRHHYMHYRYINCEVGPENLAAAIQGAKAMGWRGFNCSLPNKVEIIRYLDELGESAKIIGAVNTVVIGDDQRATGENTDGKGFVKAISEIITIQDKKIALLGAGGAARAIAVEMALAGVKEITILNRNRDKGQALADLLNSQTVATARFVLWDHPYRFSTDIDIVINATSVGLYSNVDQRLNIDTDTLLPHMVVADCIPNPVYTQLLRDAVRRGCCHVLPGMKMLVYQAVIAIKYWSGVDVDPDIMLEKLKEVVKEGHHHHHH, MSLKIAILCASGKVGKEISKEALKRNLEPVCFVRNSSKMNEFLPQAKIVQRDLFELDSKDLIDFDIIIDAFGEWENLSLHKKHIECLSVILQGSKAKLFVVGGAGSLYMDENHTTRLMDMPDFPKEYLDIAKASAEVLEFLRNEKGFKWVYVSPSAIFSPDLPKSNHYKIIGEKFEVNANNESKISYSDYASAMIDIVLNSCYENTRIGVISLEGHHHHHH, MSLKIDFLTLFPEMFEGVLGSSILQKAQEKDAVQFQVVNFREYSDNKHNTVDDYPYGGGAGMVLKPQPVFDAVEDLTSKAAAAPRIILVCPQGERFTQKKAEQLAKEEHLLFICGHYEGYDERIREHLVTDEISIGDFVLTGGELPAMMIADSVVRLLPGVLGKEASHIEDSFSTGLLEHPHYTRPADYKGLKVPETLLSGNHAKIEEWRNKESIRRTYLRRPDLLKDYPLTEQQRKWISEWEKEEGGSHHHHHH, MSLKIKEITIWKEDLALTRPYTIAYETISAVENVFVLLETDNGITGIGAGSPAEDVTGETITATETALSLKLAPILQGKDIRSCFSLLKELNTALADTPAALAAADIALHDLAAKTMGLPLVDLLGRVHDRLPTSITIGIMPVKETLAEAEEYLGRGFSILKIKTGLNVEEDIERIIRLNETFKSKICMRVDANQGYEVEELHHFFKKTVGLVEFIEQPLKAEHLEKMGQLPQAIRRVSAADETLLGPRDAAQMLHAPRPFGIFNIKLMKCGGIAPGLEIANMAGHADIDLMWGCMDESIVSIAGALHAAFSSRATRYLDLDGSLDLARDIVNGGFILENGWMRTTDQPGLGVKRIEGHHHHHH, MSLKIKKSKLIGFVVADITNPFSVAAFRGVEEVCDQYGYSIMVCNTDNSPEKEREMLLKLEAHSVEGLILNATGENKDVLRAFAEQQIPTILIDRKLPDLKLDTVTTDNRWITKEILQKVYSKGYTDVALFTEPISSISPRAERAAVYQEMASVQNVNGLVRLHEIDVKDKEQLKAELRSFHKEMPEQKKAILALNGLIMLKIISCMEELGLRIPQDIGIAGFDDTEWYKLIGPGITTIAQPSHDMGRTAMERVLKRIEGDKGAPQTIELEAKVIMRKSLEGHHHHHH, MSLKIKLIAVDLDGTLLTSRKKVSPKTLATLKKAREKGILVVPLSGRPLPGVLKVFEPFKLDPADNFAICYNGGLVQRMDGEVLSVSPLTDENVEHMLALKQTGIFGPYFMDTKDFYVAPKGSSFGVGFLAKARNMGVKRMVPGQHYEFIKGEFVSLPSKIKKFRAGFSPATEQEFEISASGGQCLEFNTPGTSKGQALTTLLDLLNIQPEEAMVFGDNNNDLSDFQLPGVFKVAMGNAIDEIKAAADYVTASNNQDGIALAVEKFVDMEGHHHHHH, MSLKILVYGINYSPELTGIGKYTGEMVAWMAQEGHEVRVITAPPYYPQWKVGERYSAWRYRWEEGEATVWRCPLYVPKQPSTLKRLLHLGSFALSSFFPLMAQRRWKPDRIIGVVPTLFCTPGMRLLATLSGARTVLHIQDYEVDAMLGLGMAGKGKRGSVARLATAFERSALRNVDNVSTISRSMMNKAREKGVAAEKILFFPNWSEVARFQDVNDADVTALRQQLGLPEGKKIVLYSGNIGEKQGLEKVIDAAERLRDRPLIFAIVGQGGGKARMENMARERGLANIKFLPLQPYDALPALLKMGDCHLVVQKRGAADAVLPSKLTNILAVGGNAVITAEPHTELGQLCARYPGIAVCVEPESTDALVDGISQALAMPKNNMTAREYAERTLNKENVLRQFIADIRGEGHHHHHH, MSLKITILAVGKLKEKYWKQAIAEYEKRLGPYTKIDIIEVPDEKAPENMSDKEIEQVKEKEGQRILAKIKPQSTVITLEIQGKMLSSEGLAQELNQRMTQGQSDFVFVIGGSNGLHKDVLQRSNYALSFSKMTFPHQMMRVVLIEQVYRAFKIMRGEAYHK, MSLKITNVEAVALDVPIMVRHRKDPFVRQCNLVRIDTDSGISGYGYTSPGEWHSTAAKVVNDMFRDVLIGQNPCKINSVISSLSTRFNRHRATGAWASAVSMVDIGLWDLLGKLYGVPTSVLLGGARTEVPVYITFGLAEYSTEELVDTVSHLVDEGHTRFKMIVGGLRSRPITREESLRPGGSHWFQGFTEDLLLNDVKRVAAVREAIGPDKGLMVDGNGAFPLGEAKRLAQNLEPFNLIWFEEPVLGNDPDLLQRLRDQTTVPIAAGQNIGSLAAHRTLIESKSYDICQLNVTHCGGYSEALKIAHLAEAHNMPIATGGAQPHHNMHFHAGVQNGGLVEFHWLSWKVGEALFVDPPAPRNGFVSLTDEPGLGLEVRPDAIEKFRVEGHHHHHH, MSLKIWITKNHKSKDDWSRSKKFIIIKITTHDGVEGWGEAFSIHLREKAIATIIIELFKEISKIKNLSINSLYNKISLLSDNHKGLDFSAATSAIEIAAWDIAGKLKNLPLNCLLTDNPKPDVSIYVTCWSDLRKDEEDYLDQVEKYFEKKYGGIKIYPLFENTSNSIKFVDRVRKIVGMEYPLMLDLAIPKDLDQTKTFLKEVSFLKPYWIEEPVDGENISLLTEIKNSFDMKVVTGEKQSGLPHFKEIIKRDAADILNPDISGIGGIIDMLYVSKEALNNDISISPHCWNSMSVSASAMLHVCSSIPNSEKAEIFPDYIEFTKEFCELPFNIVEDKAILNQSAGLGIVIHEDTLSNLSTYRMDEKNEGHHHHHH, MSLKIYLFKPYDVIGFGGLKNFSAGETHIQKSIFPPPIMRFFHIFNSVYGVFLYKDGNLFLPVPSDCLVKRKEESGKAKISPLEFPPLIRGDLEAYERANGFISFSDLMNKYAKNIDGFKIYLLEEFLKKESRVGITMDKERRVVRSIKEINRKEEKGLLYSQDFFRFNDGVKLAVLGEINKDIVISGKQYFRMGGEGKIVSFKHTEHINSFLEGKIKIKNGNYYKFYCLTHAYINNGIIESKIQTICIEGINFEVEWLYNGGVEYVSGYNKPFLEMLRPGSVLILKAKNEGEIQRLNQISTNVPISNIKNFLNRGWNSGIIVEGVKEGHHHHHH
